Earlier results as cited in publication PMC8797470, “Disruption of the pentraxin 3/CD44 interaction as an efficient therapy for triple‐negative breast cancers” (Clinical and Translational Medicine, 2022).

Target: PTX3 (Homo sapiens) (UniProt P26022)
Sequence (P26022 18-381): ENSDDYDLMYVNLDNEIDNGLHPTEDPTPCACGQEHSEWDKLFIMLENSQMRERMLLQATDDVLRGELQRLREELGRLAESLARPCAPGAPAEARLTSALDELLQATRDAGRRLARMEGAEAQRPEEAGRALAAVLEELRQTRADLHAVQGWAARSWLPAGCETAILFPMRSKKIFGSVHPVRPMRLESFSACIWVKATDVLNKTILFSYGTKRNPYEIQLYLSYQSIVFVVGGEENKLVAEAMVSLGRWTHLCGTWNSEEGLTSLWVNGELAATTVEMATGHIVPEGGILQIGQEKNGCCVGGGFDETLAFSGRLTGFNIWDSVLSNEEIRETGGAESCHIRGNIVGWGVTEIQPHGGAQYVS

Chain of TSG-6 link module (P98066 36-129): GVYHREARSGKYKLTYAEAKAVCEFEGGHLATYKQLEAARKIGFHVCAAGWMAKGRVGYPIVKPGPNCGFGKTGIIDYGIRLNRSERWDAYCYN

With TSG-6 link module (from UniProt P98066) as the substance, how does the Kd read?
Its Kd is 481 nM.
